From patent CN101671397A (UNIV SICHUAN, dated 2010)

Assays:
[1] = biological target: T1, epidermal growth factor receptor (EGFR) on human lung cancer cell line A549 (human, UniProt P00533 25-1210); assay: flow cytometry on cells (A549), detected with rabbit antiserum and goat anti-rabbit IgG-FITC
T1 construct: whole, on cells; also called 表皮生长因子受体

[2] = biological target: T1, epidermal growth factor receptor (EGFR) …; assay: immunofluorescence and flow cytometry on A549 cells (summary)

B1: recombinant Gelonin (重组Gelonin) (enzyme)
chain: GLDTVSFSTKGATYITYVNFLNELRVKLKPEGNSHGIPLLRKKCDDPGKCFVLVALSNDNGQLAEIAIDVTSVYVVGYQVRNRSYFFKDAPDAAYEGLFKNTIKTRLHFGGSYPSLEGEKAYRETTDLGIEPLRIGIKKLDENAIDNYKPTEIASSLLVVIQMVSEAARFTFIENQIRNNFQQRIRPANNTISLENKWGKLSFQIRTSGANGMFSEAVELERANGKKYYVTAVDQVKPKIALLKFVDKDPK
notes: also called rGel
[1]
  binding result: no binding (tested: 100umol/L)

B2: SCFV(Anti-EGFR)/Gelonin recombinant immunotoxin (抗EGFR单链抗体融合Gelonin重组免疫毒素) (other)
chain: EVQLQQSGAELMKPGASVKISCKATGYTFSSYWIEWVKQRPGHGLEWIGEILPGSKKTNYNEKFKGKATFTADTSSNTAYMQFSSLTSEDSAVYYCARYYYRNDDYGMDYWGQGTTVTVSSGGGGSGGGGSGGGGSDIVMSQSPKSMSMSVGERVTLTCKASENVVTYVSWYQQKPEQSPKLLIYGASNRYTGVPDRFTGSGSATDFTLTISSVQAEDLADYHCGQGCSYPYTFGGGTKLEIKGSGGGGSGGGGSGLDTVSFSTKGATYITYVNFLNELRVKLKPEGNSHGIPLLRKKCDDPGKCFVLVALSNDNGQLAEIAIDVTSVYVVGYQVRNRSYFFKDAPDAAYEGLFKNTIKTRLHFGGSYPSLEGEKAYRETTDLGIEPLRIGIKKLDENAIDNYKPTEIASSLLVVIQMVSEAARFTFIENQIRNNFQQRIRPANNTISLENKWGKLSFQIRTSGANGMFSEAVELERANGKKYYVTAVDQVKPKIALLKFVDKDPK
notes: also called ScFv(Anti-EGFR)/rGel
[2]
  binding result: binds
